The conditions of data set [1]: delivered together with deoxycholate; cited from earlier work.
The conditions of data set [2]: in vivo; cited from earlier work.
For another data set, the system named is salmonids. Particulars: in vivo; cited from earlier work.
In the next data set the test system is rainbow trout. The experiment in a line: Growth enhancement, intraperitoneal bST. It counts as in vivo, Oncorhynchus mykiss. The conditions noted are these: IP 20 μg bST/g live body weight weekly for 6 weeks. The method, then: Intraperitoneal (IP) administration dose per fish weekly was 20 μg bST/g live body weight for 6 weeks.
The test system of another data set is proteolytic enzyme. The experiment in a line: In vitro proteolytic enzyme inhibition (casein digestion by intestinal enzyme extract). In kind it is biochemical, rainbow trout. The conditions noted are these: increasing level of inhibitor inclusion; FIGS. 5-12. The method, then: • 1. Centrifuge Sorvall model • 2. Bench-top blender • 3. Dissecting material (scissors) • 4. Centrifuge bottle • 5. Disposable cuvettes for spectrophotometer • 6. Microcentrifuge tubes 1.5 ml • 7. Spectrophotometer • 8. Vortexer • 9. Microplates reader from Biorad • 10. 50 mM Tris-HCl pH=7.5 • 11. Commassie blue staining solution • 12 BSA (1 mg\ml) standard solution • 13 TCA 20% • 14. Rainbow trouts pancreatic and duodenal tissues • 15.0.5% casein in 50 mM Tris-HCl pH=9 • 16.50 mM Tris-HCl+CaCl2 10 mM pH=7.5 Enzyme Extract • 1. Rainbow trout were weighed and sacrificed. • 2. Dissection was performed to remove the proximal small intestine from the fish. • 3. After weighing, the tissues were homogenised in 50 mM Tris-HCl ph=7.5 (1:10 w\v). • 4. Centrifuge at 16000×g for 30 min at 4° C. • 5. Keep the supernatant. Aliquot and store them at −20 C for further use. • 6. Perform Commassie assay to measure the amount of protein present in the enzyme extract. Commassie Blue Stain Protocol • 1. Weigh 160 mg of BSA in 10 ml of […] Tris-HCl pH=7.5. • 2. […] Read at 655 nm with the microplate reader from Biorad. […] Centrifuge at 12000×g for 5 min and read at 280 nm. […] Centrifuge at 12000×g for 5 min and read at 280 nm. […] Centrifuge at 12000×g for 5 min and read at 280 nm. […] Centrifuge at 12000×g for 5 min and read at 280 nm. […] Centrifuge at 12000×g for 5 min and read at 280 nm. […]

Where only a bound is given, the exact number is not on record here.

For the molecule “recombinant human GH: recombinant human growth hormone”, the “enhancement of oral absorption” value in data set [1] is at most 1000 fold.

For horseradish peroxidase, the “time to transport to the circulation after oral administration” value in data set [2] is at most 1 h.

B1: bovine GH: bovine growth hormone (protein, UniProt P01246 27-217, looked up)
Somatotropin: AFPAMSLSGLFANAVLRAQHLHQLAADTFKEFERTYIPEGQRYSIQNTQVAFCFSETIPAPTGKNEAQQKSDLELLRISLLLIQSWLGPLQFLSRVFTNSLVFGTSDRVYEKLKDLEEGILALMRELEDGTPRAGQILKQTYDKFDTNMRSDDALLKNYGLLSCFRKDLHKTETYLRVMKCRRFGEASCAF
On to B1, for which the “increase in growth rate” value with salmonids is recorded as “two to three-fold”.

B2: recombinant bST: recombinant bovine somatotropin (Monsanto Co.) (protein, UniProt P01246 27-217, looked up)
Somatotropin: AFPAMSLSGLFANAVLRAQHLHQLAADTFKEFERTYIPEGQRYSIQNTQVAFCFSETIPAPTGKNEAQQKSDLELLRISLLLIQSWLGPLQFLSRVFTNSLVFGTSDRVYEKLKDLEEGILALMRELEDGTPRAGQILKQTYDKFDTNMRSDDALLKNYGLLSCFRKDLHKTETYLRVMKCRRFGEASCAF
Regarding B2, the body weight gain entry in the data set on rainbow trout is given as “significantly induces increased body weight gain”.

B3: lyophylized ovalbumin: individual protease inhibitor component of the Oralject cocktail (protein, UniProt P01012 2-386, looked up)
Ovalbumin: GSIGAASMEFCFDVFKELKVHHANENIFYCPIAIMSALAMVYLGAKDSTRTQINKVVRFDKLPGFGDSIEAQCGTSVNVHSSLRDILNQITKPNDVYSFSLASRLYAEERYPILPEYLQCVKELYRGGLEPINFQTAADQARELINSWVESQTNGIIRNVLQPSSVDSQTAMVLVNAIVFKGLWEKAFKDEDTQAMPFRVTEQESKPVQMMYQIGLFRVASMASEKMKILELPFASGTMSMLVLLPDEVSGLEQLESIINFEKLTEWTSSNVMEERKIKVYLPRMKMEEKYNLTSVLMAMGITDVFSSSANLSGISSAESLKISQAVHAAHAEINEAGREVVGSAEAGVDAASVSEEFRADHPFLFCIKHIATNAVLFFGRCVSP
Regarding B3, the “in vitro proteolytic enzyme inhibition” value in the data set on proteolytic enzyme is “affect to differing degrees”.

B4: spray-dried ovalbumin: individual protease inhibitor component of the Oralject cocktail (protein, UniProt P01012 2-386, looked up)
Ovalbumin: GSIGAASMEFCFDVFKELKVHHANENIFYCPIAIMSALAMVYLGAKDSTRTQINKVVRFDKLPGFGDSIEAQCGTSVNVHSSLRDILNQITKPNDVYSFSLASRLYAEERYPILPEYLQCVKELYRGGLEPINFQTAADQARELINSWVESQTNGIIRNVLQPSSVDSQTAMVLVNAIVFKGLWEKAFKDEDTQAMPFRVTEQESKPVQMMYQIGLFRVASMASEKMKILELPFASGTMSMLVLLPDEVSGLEQLESIINFEKLTEWTSSNVMEERKIKVYLPRMKMEEKYNLTSVLMAMGITDVFSSSANLSGISSAESLKISQAVHAAHAEINEAGREVVGSAEAGVDAASVSEEFRADHPFLFCIKHIATNAVLFFGRCVSP
As for B4, in the data set with proteolytic enzyme, the “in vitro proteolytic enzyme inhibition” value is “affect to differing degrees”.

The values are drawn from patent publication US20050175724A1, “Composition for modulating a physiological reaction or inducing an immune response” (priority 2002, published 2005).
